Results: the supplement of paper PMC10724198
± gives the standard deviation of the averaged measurements.

tested on: Saccharomyces cerevisiae; assay: protein stability index of tFT-peptide fusion (C-terminal peptide) (PSI (0-1 scale)); higher = more stable (slower turnover); conditions: genetic background: wild type; temperature: 30 C
Protocol: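 Multiplexed protein stability (MPS) profiling in S. cerevisiae. Random 12-aa peptides (tFT-X12 library) are fused to the C-terminus of a sfGFP-mCherry tandem fluorescent timer, after mCherry and a GGGS linker. Cells are FACS-sorted into 8 mCherry/sfGFP bins and deep-sequenced. The protein stability index (PSI) is the read-weighted bin average, scaled from 0 (unstable) to 1 (stable). Only peptides with >10 reads are reported; cells were grown at 30 °C in SC-His with glucose.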
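Further: PSI is a weighted mean of sequencing reads over stability bins, variants kept only with over 10 reads, mCherry proximal and sfGFP distal, peptide attached via GGGS linker.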

Point of comparison: APSLLAPPPLRP, protein stability index 0.674 ± 0.017. Against it:
- AACNGGPMNQTR — within error, 0.7 ± 0.086
- AAPKSGARASLW — within error, 0.728 ± 0.084
- AAQDTRAHYRTR — within error, 0.704 ± 0.044
- AAREVSPGNVCH — within error, 0.731 ± 0.065
- AARSEVASAAGR — within error, 0.643 ± 0.016
- AASPHHPSQTAL — within error, 0.6831 ± 0.0063
- AASSDGWHTGGA — within error, 0.694 ± 0.0032
- AAVLFVHATSHE — within error, 0.685 ± 0.061
- AAWLSQLNKVNV — within error, 0.6679 ± 0.0014
- ACCPPRLAPPPL — within error, 0.675 ± 0.016
- ACGALAKMILFW — within error, 0.663 ± 0.059
- ACPAPPPPQLPR — lower, 0.593 ± 0.031
- ACRLWWRRGGEG — lower, 0.61 ± 0.045
- ACRPRPPLSRSP — higher, 0.739 ± 0.032
- ACSTALPFSFAS — within error, 0.689 ± 0.0074
- ACVSWLPVPRQS — within error, 0.6964 ± 0.0062
- ADGLVGLLLSVV — lower, 0.62 ± 0.024
- ADMLETFSVHLG — within error, 0.666 ± 0.011
- ADVWSCAFCFDC — lower, 0.595 ± 0.033
- AEGGGWSFELEG — higher, 0.746 ± 0.02
- AFCVSVLVGLGG — lower, 0.487 ± 0.052
- AFFVAFLPLLSR — lower, 0.552 ± 0.031
- AFLPLYFLEGVL — within error, 0.702 ± 0.024
- AFLTSYHPPPLP — within error, 0.69 ± 0.059
- AFNRYASRIQEV — within error, 0.695 ± 0.02
- AFPLFTDLTRVP — higher, 0.7692 ± 0.0066
- AFPPVIPALFSV — within error, 0.697 ± 0.027
- AFRGRGAFKYCL — within error, 0.683 ± 0.1
- AFSLRGRSVMFY — within error, 0.688 ± 0.025
- AFTLQSRLSSPS — within error, 0.655 ± 0.012
- AFVEGMAYLLII — lower, 0.524 ± 0.017
- AGAGLGVVLGWW — within error, 0.684 ± 0.017
- AGCVLDGRGVVA — within error, 0.615 ± 0.074
- AGGGGGRGSAGA — higher, 0.711 ± 0.011
- AGGGGGVTASGA — within error, 0.71 ± 0.063
- AGGGGRLTRSRA — within error, 0.691 ± 0.087
- AGGGHCVGMGVG — within error, 0.642 ± 0.037
- AGGPRVRGAAGR — within error, 0.698 ± 0.055
- AGKYCCFMVFVV — within error, 0.649 ± 0.033
- AGLESFFHYSYF — higher, 0.7487 ± 0.0002
- AGLIRDAVILIG — lower, 0.631 ± 0.021
- AGLTGSREGWRG — within error, 0.638 ± 0.041
- AGPGSSSTNHES — lower, 0.585 ± 0.015
- AGPPRGVCARWC — lower, 0.635 ± 0.011
- AGRGRGPRSAGS — within error, 0.657 ± 0.014
- AGRRVPVMMYGS — within error, 0.691 ± 0.022
- AGRVGGFFFVVA — lower, 0.608 ± 0.017
- AGSCRCRTCCLV — lower, 0.61354 ± 0.00038
- AGSLCSVVFFSG — within error, 0.688 ± 0.23
- AGSQEDGRSIKG — within error, 0.669 ± 0.024
- AGSRGIVREIVL — within error, 0.68 ± 0.052
- AGVASTETREGG — within error, 0.685 ± 0.0073
- AGVGLAETAGDD — within error, 0.677 ± 0.016
- AGVGMGAVAGGS — within error, 0.705 ± 0.02
- AGWGRRRLDGGR — within error, 0.684 ± 0.02
- AHFSRRSSSSVS — within error, 0.7 ± 0.02
- AHLLLRPPLVAH — lower, 0.486 ± 0.029
- AHPLSPLSSPLR — within error, 0.682 ± 0.081
- AHVDWRLPEPNR — higher, 0.7172 ± 0.0069
- AIGAVEGGRMRE — lower, 0.5748 ± 0.0048
- AIQNSNLNTKVR — within error, 0.675 ± 0.033
- AIVWGVGCGSVG — within error, 0.738 ± 0.12
- AKLNQLMSKSQI — within error, 0.678 ± 0.02
- AKRRELKCRVNL — the same, 0.674 ± 0.0087
- AKSRQRKNGRTG — within error, 0.708 ± 0.026
- AKYPAQASTEPL — within error, 0.702 ± 0.028
- ALALCLVFFFSI — lower, 0.574 ± 0.065
- ALAYSLQRSPRV — within error, 0.616 ± 0.045
- ALESHFMVPSFP — within error, 0.693 ± 0.043
- ALGHAKDSVYGM — within error, 0.679 ± 0.041
- ALGRWAVSCNRG — within error, 0.71 ± 0.11
- ALLFCVCCGFFF — lower, 0.541 ± 0.013
- ALPGHFCVSFLP — higher, 0.752 ± 0.033
- ALPPPRPPPPSP — within error, 0.692 ± 0.034
- ALRAGGRPYSVS — higher, 0.716 ± 0.014
- ALRGESWKSKQG — within error, 0.664 ± 0.13
- ALSRLLPPRPPV — lower, 0.608 ± 0.027
- ALTWVGEGLRGS — within error, 0.699 ± 0.027
- ALYQNWITITRN — within error, 0.657 ± 0.022
- AMGIPLLTTHFI — the same, 0.674 ± 0.064
- AMPLPPPTPPRS — lower, 0.627 ± 0.027
- ANHRPCIPPPPR — within error, 0.657 ± 0.073
- APACVAGGGQRL — within error, 0.681 ± 0.081
- APAFLSLVSFAS — within error, 0.673 ± 0.017
- APAPAPARTPTR — within error, 0.683 ± 0.016
- APAPSLPTSGEL — within error, 0.701 ± 0.092
- APDRGWAEGQCS — higher, 0.727 ± 0.018
- APGGACINIQLM — within error, 0.663 ± 0.044
- APHPTPYVRRHC — higher, 0.74 ± 0.041
- APLRAPYPPPPY — higher, 0.7153 ± 0.0014
- APLRSSCVFLFP — within error, 0.744 ± 0.17
- APLSRPLRLPHP — within error, 0.692 ± 0.022
- APPCILCLFPAC — higher, 0.716 ± 0.024
- APPLPPSPPSAR — within error, 0.729 ± 0.11
- APPLPSAPPPPR — within error, 0.668 ± 0.031
- APPPGSTFVSCE — the same, 0.674 ± 0.045
- APPPLPLPPPAP — within error, 0.705 ± 0.033
- APPPLPSPRPAA — within error, 0.699 ± 0.04
- APPPPPPPPSFP — within error, 0.687 ± 0.055
- APPPRPLKLFPP — lower, 0.611 ± 0.028
- APPPRSPPPTPH — within error, 0.696 ± 0.012
- APPRPHTPLPRP — within error, 0.75 ± 0.07
- APPRSPRSLPPL — within error, 0.658 ± 0.013
- APPVILPPSGPP — within error, 0.654 ± 0.028
- APPVPLWVNPRT — within error, 0.7 ± 0.025
- APQTELTGVLFG — within error, 0.685 ± 0.0071
- APSCPKSLTFLD — higher, 0.734 ± 0.035
- APSLPPRLPWLY — higher, 0.737 ± 0.015
- APSPPSHPAAIP — higher, 0.741 ± 0.042
- APSPPVPTGPRP — within error, 0.664 ± 0.059
- APSTPTPPPPPP — within error, 0.686 ± 0.042
- APVQLDNKVVLM — within error, 0.699 ± 0.04
- APWSVSAGCFLF — within error, 0.687 ± 0.036
- AQTVNNALAKPI — within error, 0.6551 ± 0.0049
- ARAEDLLVFLPL — within error, 0.691 ± 0.039
- AREGARVVPVGR — higher, 0.717 ± 0.014
- AREGGGRAGRRE — higher, 0.729 ± 0.021
- ARGRAVRAAGAS — within error, 0.688 ± 0.088
- ARIECLIFPGCK — lower, 0.626 ± 0.022
- ARKCPLLYGPMA — within error, 0.662 ± 0.04
- ARKDVTRKSSND — within error, 0.665 ± 0.064
- ARLGKASYSVFS — higher, 0.729 ± 0.027
- ARNVDNIGYENS — within error, 0.698 ± 0.013
- ARRAPTFFSLWR — within error, 0.658 ± 0.049
- ARRAVPGRGCEV — within error, 0.683 ± 0.066
- ARRGIVQSRCNW — within error, 0.684 ± 0.064
- ARRRINKKIKKV — lower, 0.554 ± 0.018
- ARVAGECRCGRT — lower, 0.6554 ± 0.00095
- ASAGTVYLTLLP — within error, 0.697 ± 0.072
- ASFMSPPSAPLA — within error, 0.6953 ± 0.0047
- ASGGGPLGNSSR — within error, 0.684 ± 0.043
- ASGPLPPHPIAD — within error, 0.677 ± 0.011
- ASKKSVVFKQKT — within error, 0.6586 ± 0.0013
- ASLGPCLPLSLN — within error, 0.695 ± 0.03
- ASPAASSPYGTR — within error, 0.733 ± 0.051
- ASPAIDSETSEY — within error, 0.686 ± 0.16
- ASPFCRPNRHLL — within error, 0.648 ± 0.031
- ASPLYPRPPVRG — within error, 0.651 ± 0.014
- ASPSSAAQPLSP — within error, 0.641 ± 0.099
- ASSPLFLPAIQP — within error, 0.63 ± 0.06
- ASTPLPTSPPPP — within error, 0.66 ± 0.036
- ASVIWGGFSDSR — higher, 0.719 ± 0.015
- ASVTSKSNCSGI — within error, 0.663 ± 0.037
- ASYFPLRLLGFL — within error, 0.65 ± 0.051
- ATDWPELFLPFG — within error, 0.666 ± 0.007
- ATILILHTSPQF — within error, 0.655 ± 0.041
- AVAIGQGLSAGV — within error, 0.686 ± 0.053
- AVCGPHLYPRVI — within error, 0.643 ± 0.022
- AVCSLLVYAPDR — within error, 0.652 ± 0.059
- AVGLCGARSLGG — within error, 0.634 ± 0.048
- AVGPAGSQATIC — within error, 0.706 ± 0.1
- AVGPLTGPRPPV — within error, 0.699 ± 0.073
- AVGSAGRGRLGI — within error, 0.673 ± 0.0078
- AVGVRSSGRVSI — higher, 0.7246 ± 0.0034
